This assay deals with T1, HIS-TRIM21 (human, UniProt P19474 1-475).
T1 construct: human TRIM21 cDNA (full length cDNA by the plasmid paragraph) cloned into pET28a; source: bacterially purified (pET28a)
Put plainly: pull-down; GST-CLASPIN 301–630aa immobilized on Glutathione Sepharose 4B beads incubated with HIS-TRIM21 for 4 h at 4°C; HIS-TRIM21 by immunoblot. Particulars: both partners purified. For orientation: A western blot detects proteins with antibodies after separation by electrophoresis.

T1 sequence (P19474 whole entry): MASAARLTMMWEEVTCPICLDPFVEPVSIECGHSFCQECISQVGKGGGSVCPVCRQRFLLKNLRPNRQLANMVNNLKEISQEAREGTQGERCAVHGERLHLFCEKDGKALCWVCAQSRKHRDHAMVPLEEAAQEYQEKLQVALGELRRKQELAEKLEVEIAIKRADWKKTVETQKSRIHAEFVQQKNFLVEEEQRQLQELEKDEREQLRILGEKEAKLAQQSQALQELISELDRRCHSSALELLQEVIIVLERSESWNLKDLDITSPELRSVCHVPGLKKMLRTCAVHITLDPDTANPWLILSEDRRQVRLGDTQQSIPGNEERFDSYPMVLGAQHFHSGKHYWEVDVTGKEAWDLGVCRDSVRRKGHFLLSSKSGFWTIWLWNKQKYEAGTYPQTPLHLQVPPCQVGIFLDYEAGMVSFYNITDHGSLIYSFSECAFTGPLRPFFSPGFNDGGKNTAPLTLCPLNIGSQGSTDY

B1: GST-CLASPIN 301–630aa (domain or fragment, human, UniProt Q9HAW4 301-630, looked up)
chain: ALNLPYHMPENKTIHDFFKRKPRPTCHGNAMALLKSSKYQSSHHKEIIDTANTTEMNSDHHSKGSEQTTGAENEVETNALPVVSKETQIITGSDESCRKDLVKNEELEIQEKQKQSDIRPSPGDSSVLQQESNFLGNNHSEECQVGGLVAFEPHALEGEGPQNPEETDEKVEEPEQQNKSSAVGPPEKVRRFTLDRLKQLGVDVSIKPRLGADEDSFVILEPETNRELEALKQRFWKHANPAAKPRAGQTVNVNVIVKDMGTDGKEELKADVVPVTLAPKKLDGASHTKPGEKLQVLKAKLQEAMKLRRFEERQKRQALFKLDNEDGFEE
notes: human CLASPIN F2 region, residues 301–630; also called GST fusion of the CLASPIN F2 region (301–630aa); source: bacterially purified (pGEX4T-1), immobilized on Glutathione Sepharose 4B
For the molecule B1, the binding result is listed as “binds”.
